According to article PMC10141234, “Adjusting Heterodimeric Coiled-Coils (K/E Zipper) to Connect Autophagy-Inducing Peptide with Cell-Penetrating Peptide” (Pharmaceutics, 2023):
Blank lines part the entries; values can stand above or below the substance they belong to.

Assays:
[1] = molecular target: E2-CPP (Fam-labelled octaarginine cell-penetrating peptide with two EIAALEK units at its N-terminus); conditions: scale: LC3-II/actin ratio
[2] = molecular target: E3-CPP (Fam-labelled octaarginine cell-penetrating peptide with three EIAALEK units at its N-terminus); conditions: scale: LC3-II/actin ratio
[3] = molecular target: E3-CPP (Fam-labelled octaarginine cell-penetrating peptide with three EIAALEK units at its N-terminus); assay: other fluorescence titration; En-CPP (Fam) fixed at 50 nM, AIP-Kn (Tmr) added to Tmr/Fam ratios 0-2.0; PBS pH 7.0, 25 °C; excitation 495 nm, Fam fluorescence at 525 nm quenched by FRET to Tmr; Kd by fit to equation (1), with the saturation intensity Fs taken from AIP-K4/E4-CPP
[4] = tested on: HeLa cells; assay: Intracellular delivery of K/E hybrids by confocal laser microscopy; assay type: cell-based; conditions: 10 μM equimolar AIP-Kn/En-CPP mixture, 1 h, 37 °C, conclusion from Fam/Tmr signals
Description: HeLa cells were cultured in DMEM supplemented with 10% heat-inactivated FBS in a 5% CO2 incubator at 37 °C. The HeLa cell line has been stocked and propagated in Dr. Masaaki Miyazawa’s laboratory.
AIP-Kn and En-CPP (n = 2, 3, and 4) were dissolved in DMSO at 10 mM each to make a stock peptide solution. The stock solution was diluted to the desired concentration using Opti-MEM. Equal volumes of the diluted AIP-Kn and En-CPP were mixed in a 1.5 mL tube for 1 h with rotation at room temperature to generate hybrids. For single-component controls (AIP-Kn or En-CPP only), equal volumes of the diluted AIP-Kn or En-CPP and Opti-MEM with DMSO, which was added instead of the stock peptide solution, were mixed in a 1.5 mL tube, and the mixture was then treated in a manner similar to that for the hybrid formation. […]
One day before peptide treatment, 1 × 10^5 cells in 2 mL of HeLa cells were seeded on a glass-bottomed dish (Matsunami Glass, Osaka, Japan) and cultured in a 5% CO2 incubator at 37 °C. […] After washing the cells, 2 mL of PBS was added and fluorescence signals from the cells were observed using a confocal laser microscope with a Plan Apo 60× oil-immersion DIC H objective (CLMS; C2si Ready; Nikon, Tokyo, Japan). Data were analyzed using NIS-Elements Advanced research software (Nikon).

[5] = molecular target: E4-CPP (Fam-labelled octaarginine cell-penetrating peptide with four EIAALEK units at its N-terminus); conditions: scale: LC3-II/actin ratio
[6] = molecular target: E4-CPP (Fam-labelled octaarginine cell-penetrating peptide with four EIAALEK units at its N-terminus); assay: other fluorescence titration; En-CPP (Fam) fixed at 50 nM, AIP-Kn (Tmr) added to Tmr/Fam ratios 0-2.0; PBS pH 7.0, 25 °C; excitation 495 nm, Fam fluorescence at 525 nm quenched by FRET to Tmr; Kd by fit to equation (1), with the saturation intensity Fs taken from AIP-K4/E4-CPP

Chain of E4-CPP (Fam-labelled octaarginine cell-penetrating peptide with four EIAALEK units at its N-terminus) (peptide, as listed by the source): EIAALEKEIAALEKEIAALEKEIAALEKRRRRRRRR
Chain of E3-CPP (Fam-labelled octaarginine cell-penetrating peptide with three EIAALEK units at its N-terminus) (peptide, as listed by the source): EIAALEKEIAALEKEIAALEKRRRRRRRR
Chain of E2-CPP (Fam-labelled octaarginine cell-penetrating peptide with two EIAALEK units at its N-terminus) (peptide, as listed by the source): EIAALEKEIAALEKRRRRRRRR

- autophagy induction in HeLa cells, LC3-II/actin ratio by immunoblot, 10 μM, 3 h, relative to AIP-K3/E3-CPP [1]: 0.08
Substance: AIP-K2 (Tmr-labelled autophagy-inducing peptide with two KIAALKE units at its C-terminus)

- autophagy induction in HeLa cells, LC3-II/actin ratio by immunoblot, 10 μM, 3 h, the reference of the ratio [2]: 1
- Kd [3]: 20 nM
- stoichiometry N [3]: 1
Substance: AIP-K3 (Tmr-labelled autophagy-inducing peptide with three KIAALKE units at its C-terminus)

Substance: Fam-(EIAALEK)2-RRRRRRRR [E2-CPP, octaarginine modified with (EIAALEK)2 at its N-terminus, labeled with fluorescein]
- intracellular delivery (translocation into cells) [4]: alone translocates across the plasma membrane

- autophagy induction in HeLa cells, LC3-II/actin ratio by immunoblot, 10 μM, 3 h, relative to AIP-K3/E3-CPP [5]: 0.59
- Kd [6]: 2 nM
- stoichiometry N [6]: 1
Substance: AIP-K4 (Tmr-labelled autophagy-inducing peptide with four KIAALKE units at its C-terminus)
